# Source: PMC4793188, “Mechanism and inhibition of human UDP-GlcNAc 2-epimerase, the key enzyme in sialic acid biosynthesis” (Scientific Reports, 2016)
# B1: epimerase part of human GNE (UDP-GlcNAc 2-epimerase domain of the bifunctional UDP-GlcNAc 2-epimerase/ManNAc kinase) (domain or fragment)
# chain: MEKNGNNRKLRVCVATCNRADYSKLAPIMFGIKTEPEFFELDVVVLGSHLIDDYGNTYRMIEQDDFDINTRLHTIVRGEDEAAMVESVGLALVKLPDVLNRLKPDIMIVHGDRFDALALATSAALMNIRILHIEGGEVSGTIDDSIRHAITKLAHYHVCCTRSAEQHLISMCEDHDRILLAGCPSYDKLLSAKNKDYMSIIRMWLGDDVKSKDYIVALQHPVTTDIKHSIKMFELTLDALISFNKRTLVLFPNIDAGSKEMVRVMRKKGIEHHPNFRAVKHVPFDQFIQLVAHAGCMIGNSSCGVREVGAFGTPVINLGTRQIGRETGENVLHVRDADTQDKILQALHLQFGKQYPCSKIYGDGNAVPRILKFLKSIDLQEPLQKKFCFPPVKENISQDIDHILE
# modifications: selenomethionine (Se-Met enriched protein, used for the crystal structure)
# notes: UDP-GlcNAc 2-epimerase domain (N-terminal epimerase part, ~400 aa) of human bifunctional UDP-GlcNAc 2-epimerase/ManNAc kinase (GNE, ~720 aa); Cloned into pET21a(+); dimer as apo-enzyme by gel filtration; also called 2-epimerase domain of GNE; recombinant human UDP-GlcNAc 2-epimerase; source: E. coli BL21 (DE3), purified (Ni-NTA, Superdex-200)
# Key:
# [1] = molecular target: the molecule itself; test: SEC; gel filtration of the apo-enzyme; data not shown
# [2] = molecular target: the molecule itself; test: crystal structure; Se-Met protein incubated in 5 mM UDP-GlcNAc and 5 mM CMP-Neu5Ac for 16-18 h at 4 °C; crystals from 0.2 M ammonium acetate, 0.1 M HEPES pH 7.1, 19% PEG 3350; UDP and CMP-Neu5Ac bound; 2.7 Å; space group C2, four monomers in the asymmetric unit
protein,measurement,setting,value
B1,stoichiometry N,[1],2
same,stoichiometry N,[2],4
